± gives the uncertainty stated by the source.
Test: protein stability index of a GFP-peptide fusion (yeast GPS) (PSI 1-4); higher = more stable; sorted into four equal gates, so the index is relative within each strain
How it was run: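 Tiled 17-residue yeast protein peptides were fused downstream of GFP in a plasmid that also expresses Cherry, and the pooled library was carried in yeast. Mid-log cultures in leucine-free medium were sorted into four equal gates by GFP/Cherry fluorescence ratio, and plasmids from each gate were PCR-amplified and Illumina-sequenced, with reads assigned to strains by barcodes. The protein stability index for each peptide was each gate's read frequency times its gate number, summed.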

| Sequence | protein stability index (doa10∆) | protein stability index (pdr5∆) | protein stability index (san1∆) | protein stability index (ubr1∆) |
| --- | --- | --- | --- | --- |
| TSRTIVRNVKGPVREND [RPS28A] | 3.4 ± 0.11 | 3.16 ± 0.1 | 3.59 ± 0.11 | 3.27 ± 0.086 |
| QEKESQIQLAESELSLL [SMC4] | 2.81 ± 0.046 | 2.95 ± 0.051 | 1.89 ± 0.076 | 2.71 ± 0.039 |
| SDSSSEDEVKVEGPKFT [YLR335W/NUP2] | 3.4 ± 0.12 | 3.47 ± 0.13 | 3.4 ± 0.06 | 3.44 ± 0.16 |
| EEDADQEESFSLNLGIG [SRB8] | 3.2 ± 0.14 | 3.01 ± 0.27 | 2.94 ± 0.17 | – |
| GMRVGVDRSKYNIELPL [RPT1] | – | – | 3.52 ± 0.16 | – |
| EVLNRVASRHPSESEHP [YDL116W/NUP84] | 2.94 ± 0.15 | 3.17 ± 0.11 | 2.99 ± 0.084 | 3.24 ± 0.075 |
| TGRMRYLKHVSRRFKNG [RPL37A] | 2.67 ± 0.059 | 3.25 ± 0.042 | 3.44 ± 0.048 | 3.38 ± 0.047 |
| FVPVPSLAGFHKVQTKL [RPS7A] | 2.53 ± 0.075 | 2.71 ± 0.081 | 2.52 ± 0.073 | 2.75 ± 0.088 |
| EEAAEESDDDMGFGLFD [RPP1B] | 3.14 ± 0.059 | 2.87 ± 0.073 | 3.371 ± 0.029 | 3.23 ± 0.037 |
| GAISAVAATNTPIIFIG [SRP54] | 2.85 ± 0.085 | 3.42 ± 0.17 | 2.69 ± 0.073 | 2.66 ± 0.086 |
| LWKLLSTVKVSDLNLTD [YLR018C/POM34] | 2.35 ± 0.065 | 2.26 ± 0.044 | 2.3 ± 0.06 | 2.52 ± 0.039 |
| LLDRILPKLKATGHRVL [SNF2] | 2.57 ± 0.1 | 2.54 ± 0.08 | 2.3 ± 0.08 | 2.63 ± 0.088 |
| LGVIHKGNLLEGKKVMA [RPN2] | 1.37 ± 0.07 | 1.33 ± 0.048 | 1.17 ± 0.11 | 1.22 ± 0.057 |
| LDLSRSNGVLNVDNQTS [RPS17A] | – | 3.09 ± 0.22 | – | – |
| VVLGVEKRATSPLLESD [PUP2] | 2.98 ± 0.16 | 2.84 ± 0.13 | 3.15 ± 0.13 | 2.84 ± 0.11 |
| PLITRHCYPRQLCQITC [RRP46] | 1.89 ± 0.054 | 2.02 ± 0.049 | 1.92 ± 0.095 | 2.11 ± 0.044 |
| SIKDTQNVGQGKLQRKE [BRN1] | 1.96 ± 0.1 | 2.56 ± 0.081 | 1.94 ± 0.11 | 2.7 ± 0.049 |
| SQVDPITLFVLVSVVEA [FAS2] | 1.44 ± 0.045 | 2.03 ± 0.069 | 2.48 ± 0.077 | 1.45 ± 0.072 |
| EKLYIFYKLNMPDEFNT [SRP72] | 2.13 ± 0.043 | 1.96 ± 0.053 | 1.91 ± 0.078 | 1.6 ± 0.041 |
| PLKLSGEGPFTVKFKHM [YMR129W/POM152] | 2.92 ± 0.064 | 2.93 ± 0.064 | 2.75 ± 0.086 | 2.72 ± 0.076 |
| FAAIPEQGIELEHIDSK [FAS2] | 3.17 ± 0.16 | 2.85 ± 0.21 | 3.39 ± 0.084 | 3.41 ± 0.1 |
| LQKAVRGHVLQFEWHQN [SNF2] | 1.27 ± 0.043 | 1.34 ± 0.063 | 1.37 ± 0.16 | 1.35 ± 0.058 |
| TEKEPVPAVVDDPLENM [SNF6] | 2.85 ± 0.073 | 3.12 ± 0.08 | 2.69 ± 0.082 | 2.88 ± 0.068 |
| HLSKSPADRPQGRRNSR [SIR4] | 2.79 ± 0.089 | 2.85 ± 0.067 | 2.75 ± 0.059 | 2.78 ± 0.058 |
| LESTIAETQGSKVVIDS [IRR1] | 2.9 ± 0.1 | 3.03 ± 0.14 | 3.06 ± 0.12 | 2.98 ± 0.12 |

| Sequence | protein stability index (doa10∆) | protein stability index (pdr5∆) | protein stability index (san1∆) | protein stability index (ubr1∆) |
| --- | --- | --- | --- | --- |
| EKKPAAKKTSTSVDGKK [HTB2] | 2.38 ± 0.2 | 2.94 ± 0.15 | 2.72 ± 0.19 | 2.55 ± 0.2 |
| STYLPKLISAFDDLEVE [RRP42] | 2.63 ± 0.051 | 2.75 ± 0.042 | 2.58 ± 0.05 | 2.74 ± 0.032 |
| KKRSKARKETYSSYIYK [HTB1] | 2.84 ± 0.24 | 2.9 ± 0.15 | – | 2.95 ± 0.15 |
| ENNYKKRLLGTAFKSSP [RPS23A] | 2.32 ± 0.047 | 2.6 ± 0.049 | 2.22 ± 0.062 | 2.44 ± 0.036 |
| SSKKVFSSNLSYANHLE [YOR098C/NUP1] | 2.31 ± 0.067 | 2.31 ± 0.064 | 2.1 ± 0.078 | 2.48 ± 0.047 |
| FDYSVILNSIPAAANLD [YJL039C/NUP192] | 1.48 ± 0.051 | 1.44 ± 0.083 | 1.71 ± 0.079 | 1.26 ± 0.047 |
| IHLLHDDRGPVLESIVA [BRR2] | 2.48 ± 0.089 | 1.78 ± 0.06 | 3.24 ± 0.05 | 2.63 ± 0.11 |
| CISLSGVPNYLVQLEPH [SSN2] | 1.85 ± 0.062 | 2.09 ± 0.08 | 2.29 ± 0.083 | 2.2 ± 0.065 |
| FQVSNVISLGPNLATFI [YJL039C/NUP192] | 1.76 ± 0.14 | 1.99 ± 0.11 | – | 2.17 ± 0.054 |
| SGSAGANPAGASQPEPT [YJL041W/NSP1] | 2.9 ± 0.18 | 3.2 ± 0.13 | 2.93 ± 0.1 | 3.15 ± 0.1 |
| KAKIIPGNGKHASENIS [SIR4] | 2.61 ± 0.11 | 3.04 ± 0.13 | 2.67 ± 0.13 | 2.81 ± 0.12 |
| ADKKDDSESNSEPIDLI [ITC1] | 3.05 ± 0.079 | 3.32 ± 0.087 | 3.02 ± 0.12 | 3.35 ± 0.081 |
| SKKTSPKATSSAGAVFK [YOR098C/NUP1] | 2.7 ± 0.12 | 2.42 ± 0.086 | 2.54 ± 0.085 | 2.61 ± 0.046 |
| ITLHPSFFGPRMKQYLK [RPB7] | 2.41 ± 0.12 | 2.47 ± 0.12 | 1.75 ± 0.21 | 2.02 ± 0.061 |
| IEPQVINYLALNAANYN [ECM29] | 3.37 ± 0.13 | 2.63 ± 0.12 | 2.15 ± 0.24 | 2.33 ± 0.078 |
| PELNVSLNLTDDVISNA [MCD1] | 3.09 ± 0.04 | 3.21 ± 0.042 | 3.1 ± 0.036 | 3.15 ± 0.032 |
| ECADLWPRVASNSGVVV [RPL23A] | 2.9 ± 0.17 | 2.63 ± 0.1 | 3.06 ± 0.11 | 3.17 ± 0.062 |
| LGKRSILAAAHRDAYSG [PRE2] | 2.93 ± 0.2 | 3.26 ± 0.2 | 2.33 ± 0.18 | 2.85 ± 0.083 |
| GYDIFLNVVLDDAMEIN [SMX2] | 3.13 ± 0.064 | 3.07 ± 0.075 | 3.17 ± 0.054 | 2.99 ± 0.06 |
| LNVIIDQLAVSPEQIDA [YCS4] | 2.19 ± 0.05 | 2.44 ± 0.056 | 2.11 ± 0.064 | 2.11 ± 0.044 |
| LEYMNTARINNRRLFKK [RRI2] | 2.5 ± 0.08 | 2.21 ± 0.072 | 2.3 ± 0.083 | 2.5 ± 0.075 |
| AGGQRIVDDYWESLAKK [SWP82] | 1.84 ± 0.19 | 2.42 ± 0.092 | 2.45 ± 0.13 | 2.39 ± 0.15 |
| KPGSKPEKTSTELVDGR [SIR3] | 3.16 ± 0.13 | 2.86 ± 0.16 | 3.26 ± 0.089 | 3.27 ± 0.14 |
| LQMRLKESEISHNENKM [YIL149C/MLP2] | 2.94 ± 0.065 | 2.96 ± 0.068 | 3.18 ± 0.068 | 3.18 ± 0.09 |
| EFIQDSAARGLSLVYEI [ECM29] | – | – | – | 3.64 ± 0.12 |

Reference: the supplement of paper PMC9732359
